Source: patent US20040001835A1, “Prevention or treatment of cancer using integrin alphavbeta3 antagonists in combination with other agents” (MedImmune, Inc., priority 2002, published 2004)
“Also recorded” adds a separate entry of the source.

What was measured:
[1] = system: hamster αvβ3; experiment: 125-labeled Vitaxin binding affinities and number of binding sites on cell lines
From the text: ^125-labeled Vitaxin® was used to determine binding affinities and number of binding sites for human, rabbit and hamster cell lines. The affinity of Vitaxin® for hamster αvβ3 was approximately 2-3 fold lower than human αvβ3 while its affinity for rabbit αvβ3 was about 4-10 fold lower than human αvβ3.

[2] = molecular target: T1, human β3 complexed to endogenous mouse αv (Homo sapiens, UniProt P05106); experiment: Flow cytometric analysis of binding to human β3 transfected B16F10 cells; conditions: mouse melanoma B16F10, human β3 with endogenous mouse αv, FACS, FIG. 3
T1 construct: expressed in transfected cells; host or cells: B16F10 mouse melanoma
T1 sequence (P05106 27-788): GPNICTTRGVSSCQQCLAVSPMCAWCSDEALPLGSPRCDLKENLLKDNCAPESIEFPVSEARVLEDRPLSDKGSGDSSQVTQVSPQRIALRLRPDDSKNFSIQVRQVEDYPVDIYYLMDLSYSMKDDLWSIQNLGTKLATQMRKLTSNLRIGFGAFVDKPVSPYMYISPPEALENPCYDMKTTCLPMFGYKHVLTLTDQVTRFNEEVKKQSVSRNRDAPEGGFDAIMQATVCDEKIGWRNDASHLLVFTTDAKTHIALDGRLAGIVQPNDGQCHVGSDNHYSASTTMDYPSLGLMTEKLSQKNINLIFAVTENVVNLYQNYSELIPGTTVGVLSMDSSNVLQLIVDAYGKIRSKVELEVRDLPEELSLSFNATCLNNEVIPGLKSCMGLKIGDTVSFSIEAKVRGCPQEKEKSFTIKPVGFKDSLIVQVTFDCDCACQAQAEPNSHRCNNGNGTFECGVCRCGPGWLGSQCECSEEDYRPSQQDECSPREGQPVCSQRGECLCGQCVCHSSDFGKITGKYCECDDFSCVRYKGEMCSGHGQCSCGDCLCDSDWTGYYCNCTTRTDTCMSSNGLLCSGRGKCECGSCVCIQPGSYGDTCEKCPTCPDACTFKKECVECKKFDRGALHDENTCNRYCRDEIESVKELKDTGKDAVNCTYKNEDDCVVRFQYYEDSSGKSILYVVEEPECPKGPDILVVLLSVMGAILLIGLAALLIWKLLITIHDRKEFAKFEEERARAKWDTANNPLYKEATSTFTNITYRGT
T1 sequence (P43406 31-885 partner limits assumed): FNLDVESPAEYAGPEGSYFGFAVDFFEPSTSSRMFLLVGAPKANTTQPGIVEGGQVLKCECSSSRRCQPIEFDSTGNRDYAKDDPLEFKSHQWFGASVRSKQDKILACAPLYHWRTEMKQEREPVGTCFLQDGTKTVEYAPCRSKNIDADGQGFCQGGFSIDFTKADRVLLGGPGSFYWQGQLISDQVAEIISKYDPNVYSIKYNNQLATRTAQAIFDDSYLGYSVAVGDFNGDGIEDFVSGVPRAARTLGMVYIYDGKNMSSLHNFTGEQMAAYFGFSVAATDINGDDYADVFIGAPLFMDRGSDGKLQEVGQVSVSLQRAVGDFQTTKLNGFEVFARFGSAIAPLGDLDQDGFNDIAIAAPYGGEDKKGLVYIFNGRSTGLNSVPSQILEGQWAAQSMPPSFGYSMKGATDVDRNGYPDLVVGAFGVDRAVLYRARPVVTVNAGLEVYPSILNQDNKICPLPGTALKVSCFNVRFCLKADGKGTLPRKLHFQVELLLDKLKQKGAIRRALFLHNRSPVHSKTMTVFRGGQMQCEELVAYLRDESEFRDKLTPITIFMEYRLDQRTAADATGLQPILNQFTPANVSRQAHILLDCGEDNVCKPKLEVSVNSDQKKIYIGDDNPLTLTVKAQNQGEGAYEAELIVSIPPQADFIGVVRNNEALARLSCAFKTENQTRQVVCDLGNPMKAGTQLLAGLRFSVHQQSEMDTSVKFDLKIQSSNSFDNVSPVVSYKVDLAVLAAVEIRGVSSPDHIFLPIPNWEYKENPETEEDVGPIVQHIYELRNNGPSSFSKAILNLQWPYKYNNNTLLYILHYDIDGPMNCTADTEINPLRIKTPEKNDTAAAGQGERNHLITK
T1 sequence (P43406 887-1044 partner limits assumed): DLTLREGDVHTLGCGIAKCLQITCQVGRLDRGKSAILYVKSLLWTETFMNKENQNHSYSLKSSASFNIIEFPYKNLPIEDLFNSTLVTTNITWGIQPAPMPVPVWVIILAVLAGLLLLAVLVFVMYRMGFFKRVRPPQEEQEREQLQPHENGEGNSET
Description: FIG. 3. Flow cytometric analysis of binding of Vitaxin® to human β3 transfected B16F10 cells. In order to determine the binding specificity of Vitaxin® for αvβ3, the mouse melanoma line B16F10 was transfected with an expression vector encoding the human β3 gene. Cells were analyzed by FACS for expression of β3 expressed with the endogenous mouse αv.

[3] = molecular target: T2, modified mouse Integrin αVβ3 with amino acids 164-202 of the human β chain (Mus musculus, UniProt O54890, A208T/I198L/K199E/N204D/N207T/Q196E/S226T); experiment: Binding to modified mouse Integrin αVβ3; parameters: species or system mouse/human chimera
T2 sequence (O54890 26-787 Q196E/I198L/K199E/N204D/N207T/A208T/S226T): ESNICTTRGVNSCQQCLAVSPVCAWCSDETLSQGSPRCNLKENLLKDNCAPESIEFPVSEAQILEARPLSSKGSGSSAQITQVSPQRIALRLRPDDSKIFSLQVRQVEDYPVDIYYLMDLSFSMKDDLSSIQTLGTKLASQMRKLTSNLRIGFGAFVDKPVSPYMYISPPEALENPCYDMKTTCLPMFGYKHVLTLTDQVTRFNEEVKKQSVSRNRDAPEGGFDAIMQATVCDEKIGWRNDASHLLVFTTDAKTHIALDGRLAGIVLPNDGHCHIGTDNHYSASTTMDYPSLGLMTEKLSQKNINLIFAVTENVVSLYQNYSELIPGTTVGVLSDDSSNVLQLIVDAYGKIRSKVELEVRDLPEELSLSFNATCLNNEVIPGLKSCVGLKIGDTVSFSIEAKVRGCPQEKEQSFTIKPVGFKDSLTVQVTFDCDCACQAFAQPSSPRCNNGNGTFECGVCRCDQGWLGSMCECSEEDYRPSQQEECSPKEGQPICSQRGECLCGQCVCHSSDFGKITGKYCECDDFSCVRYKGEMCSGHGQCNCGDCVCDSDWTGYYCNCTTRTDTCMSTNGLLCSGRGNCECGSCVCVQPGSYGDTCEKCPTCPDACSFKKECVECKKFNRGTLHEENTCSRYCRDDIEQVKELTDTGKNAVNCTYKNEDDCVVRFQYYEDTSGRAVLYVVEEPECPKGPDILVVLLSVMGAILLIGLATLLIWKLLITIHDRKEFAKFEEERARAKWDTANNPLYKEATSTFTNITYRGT
T2 sequence (P43406 31-885 partner): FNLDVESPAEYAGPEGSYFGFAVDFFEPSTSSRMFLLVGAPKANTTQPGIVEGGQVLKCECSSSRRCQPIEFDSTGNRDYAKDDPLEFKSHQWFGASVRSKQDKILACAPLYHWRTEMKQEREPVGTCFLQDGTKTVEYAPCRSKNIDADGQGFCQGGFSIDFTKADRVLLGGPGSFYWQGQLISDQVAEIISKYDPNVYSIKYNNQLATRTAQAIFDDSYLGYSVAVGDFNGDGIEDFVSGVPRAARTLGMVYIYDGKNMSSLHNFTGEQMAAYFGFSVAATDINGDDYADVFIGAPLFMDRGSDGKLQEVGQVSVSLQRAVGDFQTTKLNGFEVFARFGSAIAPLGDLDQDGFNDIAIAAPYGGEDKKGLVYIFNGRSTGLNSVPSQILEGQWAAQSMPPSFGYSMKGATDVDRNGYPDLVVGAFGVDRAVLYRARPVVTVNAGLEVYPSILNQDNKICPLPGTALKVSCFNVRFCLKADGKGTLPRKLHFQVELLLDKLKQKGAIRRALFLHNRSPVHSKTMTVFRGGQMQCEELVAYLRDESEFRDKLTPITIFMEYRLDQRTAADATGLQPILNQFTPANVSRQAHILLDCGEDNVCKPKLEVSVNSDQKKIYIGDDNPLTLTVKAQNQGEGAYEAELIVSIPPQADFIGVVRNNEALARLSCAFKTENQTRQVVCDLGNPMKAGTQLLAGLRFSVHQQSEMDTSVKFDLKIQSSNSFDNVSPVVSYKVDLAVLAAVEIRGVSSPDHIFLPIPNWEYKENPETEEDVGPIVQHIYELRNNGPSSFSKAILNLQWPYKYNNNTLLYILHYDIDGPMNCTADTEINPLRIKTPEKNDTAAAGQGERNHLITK
T2 sequence (P43406 887-1044 partner): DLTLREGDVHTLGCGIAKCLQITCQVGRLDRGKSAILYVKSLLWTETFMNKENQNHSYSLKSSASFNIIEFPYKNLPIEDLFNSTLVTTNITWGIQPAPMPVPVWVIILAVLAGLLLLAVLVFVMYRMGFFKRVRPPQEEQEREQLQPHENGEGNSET

B1: Vitaxin®: humanized blocking monoclonal antibody that binds Integrin αVβ3 (MEDI-522, MedImmune); humanized and optimized version of LM609 (antibody, chains of the INN, looked up, V domains shown)
VH: QVQLVESGGGVVQPGRSLRLSCAASGFTFSSYDMSWVRQAPGKGLEWVAKVSSGGGSTYYLDTVQGRFTISRDNSKNTLYLQMNSLRAEDTAVYYCARHLHGSFASWGQGTTVTVSS
VL: EIVLTQSPATLSLSPGERATLSCQASQSISNFLHWYQQRPGQAPRLLIRYRSQSISGIPARFSGSGSGTDFTLTISSLEPEDFAVYYCQQSGSWPLTFGGGTKVEIK
Kd ([1]; Hamster CCL-49 melanoma, read-out: Kp): 6.9 nM
affinity for hamster αvβ3, fold lower than human αvβ3 ([1]; hamster vs human cell lines): 2-3 fold
binding to human β3 transfected B16F10 cells [2]: bound; also recorded: recognized the transfected cells
binding to modified mouse Integrin αVβ3 (human β chain amino acids 164-202) [3]: do bind
